Assay results published in patent publication US20090208416A1.

How the values were obtained:
[1] = biological target: NKG2A on rhesus monkey (Macaca mulatta) NK cells (rhesus monkey (Macaca mulatta)) (UniProt Q9MZJ3); experiment: FACS rhesus whole blood, animal O967
[2] = biological target: NKG2A on rhesus monkey (Macaca mulatta) NK cells (rhesus monkey (Macaca mulatta)) (UniProt Q9MZJ3); experiment: FACS rhesus whole blood, animal R00007
[3] = biological target: NKG2A on rhesus monkey (Macaca mulatta) NK cells (rhesus monkey (Macaca mulatta)) (UniProt Q9MZJ3); experiment: FACS rhesus whole blood, animal R00013
[4] = biological target: NKG2A on rhesus monkey (Macaca mulatta) NK cells (rhesus monkey (Macaca mulatta)) (UniProt Q9MZJ3); experiment: FACS rhesus whole blood, animal R00037
[5] = biological target: NKG2A on rhesus monkey (Macaca mulatta) NK cells (rhesus monkey (Macaca mulatta)) (UniProt Q9MZJ3); experiment: FACS rhesus whole blood, animal R00041
[6] = biological target: NKG2A on rhesus monkey (Macaca mulatta) NK cells (rhesus monkey (Macaca mulatta)) (UniProt Q9MZJ3); experiment: FACS rhesus whole blood, animal R00055
[7] = biological target: NKG2A on rhesus monkey (Macaca mulatta) NK cells (rhesus monkey (Macaca mulatta)) (UniProt Q9MZJ3); experiment: FACS rhesus whole blood, animal R00061
[8] = biological target: NKG2A on rhesus monkey (Macaca mulatta) NK cells (rhesus monkey (Macaca mulatta)) (UniProt Q9MZJ3); experiment: FACS rhesus whole blood, animal R00077
[9] = biological target: NKG2A on rhesus monkey (Macaca mulatta) NK cells (rhesus monkey (Macaca mulatta)) (UniProt Q9MZJ3); experiment: FACS rhesus whole blood, animal R00101
[10] = biological target: NKG2A on cynomolgus monkey NK cells (cynomolgus monkey) (UniProt Q68VD2); experiment: FACS cynomolgus whole blood, animal 1221
[11] = biological target: NKG2A on cynomolgus monkey NK cells (cynomolgus monkey) (UniProt Q68VD2); experiment: FACS cynomolgus whole blood, animal AL303
[12] = biological target: NKG2A on rhesus monkey (Macaca mulatta) NK cells (rhesus monkey (Macaca mulatta)) (UniProt Q9MZJ3); experiment: FACS rhesus whole blood, mean over animals
[13] = biological target: NKG2A on rhesus monkey (Macaca mulatta) NK cells (rhesus monkey (Macaca mulatta)) (UniProt Q9MZJ3); experiment: FACS rhesus whole blood NK cells, animal 201
[14] = biological target: NKG2A on baboon NK cells (baboon); experiment: FACS baboon whole blood NK cells, animal O22V
[15] = biological target: NKG2A on baboon NK cells (baboon); experiment: FACS baboon whole blood NK cells, animal V997
[16] = biological target: NKG2A on baboon NK cells (baboon); experiment: FACS baboon whole blood NK cells, animal V999
[17] = biological target: NKG2A on rhesus monkey (Macaca mulatta) NK cells (rhesus monkey (Macaca mulatta)) (UniProt Q9MZJ3); experiment: FACS rhesus whole blood NK cells, animal N0401
[18] = biological target: NKG2A on rhesus monkey (Macaca mulatta) NK cells (rhesus monkey (Macaca mulatta)) (UniProt Q9MZJ3); experiment: FACS rhesus whole blood NK cells, animal PM021
[19] = biological target: NKG2A on baboon NK cells (baboon); experiment: FACS baboon whole blood NK cells, animal K938A
[20] = biological target: NKG2A on baboon NK cells (baboon); experiment: FACS baboon whole blood NK cells, animal PA983
[21] = biological target: NKG2A on baboon NK cells (baboon); experiment: FACS baboon whole blood NK cells, animal V918C
[22] = biological target: NKG2A on baboon NK cells (baboon); experiment: FACS baboon whole blood NK cells, animal V9812
[23] = biological target: NKG2A on baboon NK cells (baboon); experiment: FACS baboon whole blood NK cells, animal V9912
[24] = biological target: NKG2A on baboon NK cells (baboon); experiment: FACS baboon whole blood NK cells, animal V9914
[25] = biological target: NKG2A on baboon NK cells (baboon); experiment: FACS baboon whole blood NK cells, animal V9926
[26] = biological target: NKG2A on cynomolgus monkey NK cells (cynomolgus monkey) (UniProt Q68VD2); experiment: FACS cynomolgus whole blood, mean of 10 animals
[27] = biological target: NKG2A on rhesus monkey (Macaca mulatta) NK cells (rhesus monkey (Macaca mulatta)) (UniProt Q9MZJ3); experiment: FACS rhesus whole blood NK cells, mean of 9 animals

UniProt Q9MZJ3, sequence (Q9MZJ3 whole entry): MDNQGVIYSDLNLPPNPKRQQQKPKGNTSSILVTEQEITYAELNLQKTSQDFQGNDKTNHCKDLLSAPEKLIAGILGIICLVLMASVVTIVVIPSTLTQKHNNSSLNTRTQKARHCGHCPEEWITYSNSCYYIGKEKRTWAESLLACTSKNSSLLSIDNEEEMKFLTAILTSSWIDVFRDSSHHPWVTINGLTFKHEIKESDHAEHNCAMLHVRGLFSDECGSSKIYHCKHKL
UniProt Q68VD2, sequence (Q68VD2 entry or part of it): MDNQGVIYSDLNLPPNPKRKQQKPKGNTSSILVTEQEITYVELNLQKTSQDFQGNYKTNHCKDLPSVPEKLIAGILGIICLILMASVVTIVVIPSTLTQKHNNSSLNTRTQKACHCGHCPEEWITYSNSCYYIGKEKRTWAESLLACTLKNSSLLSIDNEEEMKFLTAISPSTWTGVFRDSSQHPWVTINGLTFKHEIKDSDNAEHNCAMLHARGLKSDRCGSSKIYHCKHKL

% NK+ [1]: 0.5%
MFI [1]: 0.67
% NK+ [2]: 1.5%
MFI [2]: 0.52
% NK+ [3]: 0.3%
MFI [3]: 0.66
% NK+ [4]: 0.6%
MFI [4]: 0.5
% NK+ [5]: 0.9%
MFI [5]: 0.48
% NK+ [6]: 0.6%
MFI [6]: 0.7
% NK+ [7]: 0.5%
MFI [7]: 0.5
% NK+ [8]: 0.4%
MFI [8]: 0.41
% NK+ [9]: 0.5%
MFI [9]: 0.58
% NK+ [10]: 0.6%
MFI [10]: 0.53
% NK+ [11]: 0.13%
MFI [11]: 0.63
% NK+ (Mean) [12]: 0.7%
MFI (Mean) [12]: 0.6
% [13]: 1.3%
% [14]: 0.5%
tot. MFI [14]: 0.2
% [15]: 0.7%
tot. MFI [15]: 0.2
% [16]: 0.3%
tot. MFI [16]: 0.2
% [17]: 0.5%
% [18]: 0.8%
% [19]: 0.3%
tot. MFI [19]: 0.3
% [20]: 0.1%
tot. MFI [20]: 0.7
% [21]: 0.3%
tot. MFI [21]: 1.1
% [22]: 1.3%
tot. MFI [22]: 1.2
% [23]: 0.2%
tot. MFI [23]: 0.2
% [24]: 0.1%
tot. MFI [24]: 0.3
% [25]: 0.5%
tot. MFI [25]: 0.2
% NK+ (Mean) [26]: 0.3%
MFI (Mean) [26]: 0.6
% (Mean) [27]: 0.7%
Substance: mouse IgG1 isotype control (antibody)
